Biological target: Flk1 (UniProt P35918)
Chain of UniProt P35918 (P35918 20-1345): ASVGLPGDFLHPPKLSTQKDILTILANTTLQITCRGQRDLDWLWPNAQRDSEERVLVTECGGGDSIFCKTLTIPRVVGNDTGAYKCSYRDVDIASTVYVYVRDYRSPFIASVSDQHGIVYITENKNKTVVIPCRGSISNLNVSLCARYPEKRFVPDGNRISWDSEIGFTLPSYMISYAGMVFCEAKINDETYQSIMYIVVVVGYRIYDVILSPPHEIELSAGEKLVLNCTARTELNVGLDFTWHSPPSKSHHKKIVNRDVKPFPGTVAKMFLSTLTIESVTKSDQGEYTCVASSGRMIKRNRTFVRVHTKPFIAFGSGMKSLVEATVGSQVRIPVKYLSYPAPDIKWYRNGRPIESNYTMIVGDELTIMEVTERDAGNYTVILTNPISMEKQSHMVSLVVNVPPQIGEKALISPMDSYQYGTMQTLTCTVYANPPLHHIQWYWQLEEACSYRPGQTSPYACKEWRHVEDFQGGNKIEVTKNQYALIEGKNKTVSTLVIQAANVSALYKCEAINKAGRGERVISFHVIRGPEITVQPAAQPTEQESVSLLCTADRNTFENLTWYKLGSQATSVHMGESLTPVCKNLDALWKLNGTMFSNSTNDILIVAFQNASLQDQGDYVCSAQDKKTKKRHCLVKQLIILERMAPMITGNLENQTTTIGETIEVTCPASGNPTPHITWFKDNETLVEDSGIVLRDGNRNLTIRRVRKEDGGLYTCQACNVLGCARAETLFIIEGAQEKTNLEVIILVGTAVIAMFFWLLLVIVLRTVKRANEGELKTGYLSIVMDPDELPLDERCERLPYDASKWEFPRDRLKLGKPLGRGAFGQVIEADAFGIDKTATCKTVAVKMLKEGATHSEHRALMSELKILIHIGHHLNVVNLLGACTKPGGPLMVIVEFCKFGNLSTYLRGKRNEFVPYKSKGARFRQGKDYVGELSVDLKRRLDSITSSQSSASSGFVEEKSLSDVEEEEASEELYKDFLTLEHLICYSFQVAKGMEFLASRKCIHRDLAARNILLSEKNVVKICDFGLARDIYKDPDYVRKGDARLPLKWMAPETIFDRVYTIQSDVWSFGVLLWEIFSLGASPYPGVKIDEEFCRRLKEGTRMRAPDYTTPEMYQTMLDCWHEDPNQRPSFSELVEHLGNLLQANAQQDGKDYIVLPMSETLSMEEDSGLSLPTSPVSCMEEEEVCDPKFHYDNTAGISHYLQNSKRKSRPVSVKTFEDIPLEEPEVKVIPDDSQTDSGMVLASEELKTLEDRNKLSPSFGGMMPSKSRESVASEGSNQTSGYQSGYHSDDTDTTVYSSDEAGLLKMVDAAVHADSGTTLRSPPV

VEGF 165 (ligand)
3.9 kb Etv2 luciferase reporter (standardized to Renilla) in 293T cells cotransfected with the Flk1 expression vector, VEGF 50 ng/ml for 2, 6 or 18 hours: 15 fold

— paper PMC3501484
